# Data reported in PMC6393709.
# Molecular target: PARP1 (protein used in the SPRi assay) (UniProt P09874)
# Assay: SPR; SPRi on a PlexArray HT (V3), 25°C, 1x PBS pH 7.4
# UniProt P09874, sequence (P09874 whole entry): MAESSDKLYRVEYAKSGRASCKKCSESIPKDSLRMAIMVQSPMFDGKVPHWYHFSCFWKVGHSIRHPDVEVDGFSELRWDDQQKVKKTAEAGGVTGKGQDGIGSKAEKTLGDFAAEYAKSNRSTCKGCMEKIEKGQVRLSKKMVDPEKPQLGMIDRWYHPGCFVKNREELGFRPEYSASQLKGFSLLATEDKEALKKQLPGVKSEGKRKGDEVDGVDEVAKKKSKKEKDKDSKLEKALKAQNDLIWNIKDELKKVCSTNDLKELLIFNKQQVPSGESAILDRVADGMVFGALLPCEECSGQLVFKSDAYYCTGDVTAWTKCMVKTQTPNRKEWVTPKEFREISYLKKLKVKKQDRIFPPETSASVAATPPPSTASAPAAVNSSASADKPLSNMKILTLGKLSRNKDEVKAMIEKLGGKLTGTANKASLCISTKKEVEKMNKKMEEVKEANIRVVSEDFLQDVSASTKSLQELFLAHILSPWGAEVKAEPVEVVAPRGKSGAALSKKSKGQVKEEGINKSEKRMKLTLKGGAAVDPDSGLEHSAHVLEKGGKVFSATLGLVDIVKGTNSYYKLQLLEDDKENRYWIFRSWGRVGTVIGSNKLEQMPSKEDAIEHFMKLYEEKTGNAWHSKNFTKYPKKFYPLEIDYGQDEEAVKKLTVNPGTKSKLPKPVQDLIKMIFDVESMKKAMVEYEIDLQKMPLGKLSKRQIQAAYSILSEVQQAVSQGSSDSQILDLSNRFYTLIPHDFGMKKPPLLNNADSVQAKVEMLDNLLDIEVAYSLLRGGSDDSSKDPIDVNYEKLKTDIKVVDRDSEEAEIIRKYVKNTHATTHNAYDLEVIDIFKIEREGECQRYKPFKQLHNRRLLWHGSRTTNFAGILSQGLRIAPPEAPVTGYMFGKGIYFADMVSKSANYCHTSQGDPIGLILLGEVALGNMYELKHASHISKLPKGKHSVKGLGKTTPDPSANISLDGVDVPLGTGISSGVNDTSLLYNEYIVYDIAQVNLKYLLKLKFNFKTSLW
substance,measurement,value
F-actin domain of ABL1 (domain or fragment),Kd,13.6 nM
